Article PMC11417369, “DNA sequence and chromatin differentiate sequence-specific transcription factor binding in the human malaria parasite Plasmodium falciparum”

B1: GTGCAC_site9981 (dsDNA)
DNA 1: ATAATGTTCACATAGGTGCACTAATATAATTATCCA
DNA 2: TGGATAATTATATTAGTGCACCTATGTGAACATTAT
B2: GTGCAC_site10051 (dsDNA)
DNA 1: AATAAATTAAAACAGGTGCACTATATTACACACGCT
DNA 2: AGCGTGTGTAATATAGTGCACCTGTTTTAATTTATT
B3: GTGCAC_negctrl_site490 (dsDNA)
DNA 1: TGTATAAAAAGAAAAAATCGTATGTGTTATCAAAAA
DNA 2: TTTTTGATAACACATACGATTTTTTCTTTTTATACA
B4: GTGCAC_negctrl_site283 (dsDNA)
DNA 1: ATAATTCCAAGAATTTCATATATCTGAATTTTAGGT
DNA 2: ACCTAAAATTCAGATATATGAAATTCTTGGAATTAT
B5: GTGCAC_site9947 (dsDNA)
DNA 1: TATTTGAAAACATAGGTGCACATTATTTTATAATCT
DNA 2: AGATTATAAAATAATGTGCACCTATGTTTTCAAATA
B6: GTGCAC_site9422 (dsDNA)
DNA 1: CACTCTTAAAATAAGGTGCACTATATAACGTGATTA
DNA 2: TAATCACGTTATATAGTGCACCTTATTTTAAGAGTG
B7: GTGCAC_site10700 (dsDNA)
DNA 1: ATTATACAAATTGAGGTGCATGAAACAAAATATGAA
DNA 2: TTCATATTTTGTTTCATGCACCTCAATTTGTATAAT
B8: GTGCAC_site9615 (dsDNA)
DNA 1: TTATTTTATTTTTTTGTGCACATATATATTTATAAA
DNA 2: TTTATAAATATATATGTGCACAAAAAAATAAAATAA
B9: GTGCAC_negctrl_site728 (dsDNA)
DNA 1: TTTTGTAAAATTAATTTATTATACATATATATTTCT
DNA 2: AGAAATATATATGTATAATAAATTAATTTTACAAAA
B10: GTGCAC_negctrl_site214 (dsDNA)
DNA 1: ACCCAAGAGAAAAGAGAAAGAAATATGTGTATATTG
DNA 2: CAATATACACATATTTCTTTCTCTTTTCTCTTGGGT
B11: GTGCAC_site10578 (dsDNA)
DNA 1: CATATTGTCATTCTGGTGCACTTTTTTTTTTTTTTT
DNA 2: AAAAAAAAAAAAAAAGTGCACCAGAATGACAATATG
B12: GTGCAC_site10368 (dsDNA)
DNA 1: ACATGTGAATTTTAGGTGCACTTGTAATTTAACATT
DNA 2: AATGTTAAATTACAAGTGCACCTAAAATTCACATGT
B13: GTGCAC_site10073 (dsDNA)
DNA 1: AAATACTGTACAAAGGTGCATAAAAAGTGGGGCATA
DNA 2: TATGCCCCACTTTTTATGCACCTTTGTACAGTATTT
B14: GTGCAC_site10755 (dsDNA)
DNA 1: TAATGCAACATTTATGTGCACATAAATATTTTTTAA
DNA 2: TTAAAAAATATTTATGTGCACATAAATGTTGCATTA
B15: GTGCAC_negctrl_site191 (dsDNA)
DNA 1: TTTTAAATTGGAGTGGGCAGATTGATATTATTCTTC
DNA 2: GAAGAATAATATCAATCTGCCCACTCCAATTTAAAA
B16: GTGCAC_negctrl_site670 (dsDNA)
DNA 1: TAAGACTATTAAAAAATTGAGTACATGAACTGTTCA
DNA 2: TGAACAGTTCATGTACTCAATTTTTTAATAGTCTTA
B17: GTGCAC_negctrl_site45 (dsDNA)
DNA 1: TTATGTTGCGAGTTCTTAAGATATAAAAAATTCTTC
DNA 2: GAAGAATTTTTTATATCTTAAGAACTCGCAACATAA
B18: GTGCAC_site9630 (dsDNA)
DNA 1: TTTAATTTATATTTTGTGCACATCTTATTATATATA
DNA 2: TATATATAATAAGATGTGCACAAAATATAAATTAAA
B19: GTGCAC_negctrl_site278 (dsDNA)
DNA 1: TTTTTTACATACAGAAATATATAATATAAAATAAAT
DNA 2: ATTTATTTTATATTATATATTTCTGTATGTAAAAAA
B20: GTGCAC_negctrl_site129 (dsDNA)
DNA 1: AATTTAATCCGTAATAAGAAAAGAAAAAAAAAAAGA
DNA 2: TCTTTTTTTTTTTCTTTTCTTATTACGGATTAAATT
B21: GTGCAC_negctrl_site170 (dsDNA)
DNA 1: AATATATTTTGATATGAACAATTAATAATTTCAAAT
DNA 2: ATTTGAAATTATTAATTGTTCATATCAAAATATATT
B22: GTGCAC_site9957 (dsDNA)
DNA 1: TTTTAATGTACCAGTGTGCACCTTGCGTACATATTA
DNA 2: TAATATGTACGCAAGGTGCACACTGGTACATTAAAA
B23: GTGCAC_negctrl_site613 (dsDNA)
DNA 1: TACTCAAAAATTAATTAGCATAATATATATAAAAAT
DNA 2: ATTTTTATATATATTATGCTAATTAATTTTTGAGTA
B24: GTGCAC_site10523 (dsDNA)
DNA 1: TCGTTTCATAATATTGTGCACATATATATTTACAAT
DNA 2: ATTGTAAATATATATGTGCACAATATTATGAAACGA
B25: GTGCAC_site10418 (dsDNA)
DNA 1: CTTTTCTATTTTTTCGTGCACTATAAATATTTTAAT
DNA 2: ATTAAAATATTTATAGTGCACGAAAAAATAGAAAAG
B26: GTGCAC_site9624 (dsDNA)
DNA 1: GACAAATAATAAAAGGTGCATTATACTTAACAAAAA
DNA 2: TTTTTGTTAAGTATAATGCACCTTTTATTATTTGTC
B27: GTGCAC_site10451 (dsDNA)
DNA 1: ATGTTATAATTTAGTGTGCACATATTAAGAGGAACA
DNA 2: TGTTCCTCTTAATATGTGCACACTAAATTATAACAT
B28: GTGCAC_site10340 (dsDNA)
DNA 1: ATTATTATTAATCTTGTGCACATATATTTTAATTAG
DNA 2: CTAATTAAAATATATGTGCACAAGATTAATAATAAT
B29: GTGCAC_site9671 (dsDNA)
DNA 1: GTTACAGAGAATGTTGTGCACATATCAATAATATAT
DNA 2: ATATATTATTGATATGTGCACAACATTCTCTGTAAC
B30: GTGCAC_site9812 (dsDNA)
DNA 1: TGTTTTATTTTTTTTGTGCACATACCTTTAGCATCA
DNA 2: TGATGCTAAAGGTATGTGCACAAAAAAAATAAAACA
B31: GTGCAC_site10770 (dsDNA)
DNA 1: TATATACATTTTTATGTGCACATTTTATTTTTAAAT
DNA 2: ATTTAAAAATAAAATGTGCACATAAAAATGTATATA
B32: GTGCAC_negctrl_site669 (dsDNA)
DNA 1: AAAAAAAAGTATGATTCTAAATTTATGTATATATAA
DNA 2: TTATATATACATAAATTTAGAATCATACTTTTTTTT
B33: GTGCAC_site9431 (dsDNA)
DNA 1: TCTTCTTTAAAAGAGGTGCACTATATAATGTGATTA
DNA 2: TAATCACATTATATAGTGCACCTCTTTTAAAGAAGA
B34: GTGCAC_site10054 (dsDNA)
DNA 1: GTCTATATATTTTAGGTGCAACGTAAATGTAAAAAT
DNA 2: ATTTTTACATTTACGTTGCACCTAAAATATATAGAC
B35: GTGCAC_negctrl_site701 (dsDNA)
DNA 1: ATTAATATGAAACGATTATAAGAAAGAAAAGAAATG
DNA 2: CATTTCTTTTCTTTCTTATAATCGTTTCATATTAAT
B36: GTGCAC_site10153 (dsDNA)
DNA 1: AAAATGTAATATTGGGTGCACAATAAGTTTGATGTC
DNA 2: GACATCAAACTTATTGTGCACCCAATATTACATTTT
B37: GTGCAC_site9596 (dsDNA)
DNA 1: TATATTTTTATGTGTGTGCACAAAATAACAAAATAT
DNA 2: ATATTTTGTTATTTTGTGCACACACATAAAAATATA
B38: GTGCAC_negctrl_site491 (dsDNA)
DNA 1: TTTTTTATTTTTTACATATTTAGCTCATATTTATAT
DNA 2: ATATAAATATGAGCTAAATATGTAAAAAATAAAAAA

How the values were obtained:
Assay in all cases: gcPBM; about 25 ug protein; PBS, 1% milk, 0.2 mg/ml BSA, salmon testes DNA, 0.03% Triton X-100
SIP2 D1 = molecular target: T1, SIP2 D1 (Plasmodium falciparum, UniProt C6KSN9 177-235); settings: tags: N-terminal GST (pGEX-4T-1), kept; label: surface-attached array probe
T1 sequence: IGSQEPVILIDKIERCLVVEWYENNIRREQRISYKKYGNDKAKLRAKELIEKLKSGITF

AP2-I D3 = AP2-I D3 (Plasmodium falciparum, UniProt Q8IJW6 910-1027); settings: tags: N-terminal GST (pGEX-4T-1), kept; label: surface-attached array probe
HDP1 homeodomain-like = molecular target: T2, HDP1 homeodomain-like (Plasmodium falciparum, UniProt Q8IKH4 2990-3078); settings: tags: N-terminal GST (pGEX-4T-1), kept; chain copies: 2; label: surface-attached array probe
T2 sequence: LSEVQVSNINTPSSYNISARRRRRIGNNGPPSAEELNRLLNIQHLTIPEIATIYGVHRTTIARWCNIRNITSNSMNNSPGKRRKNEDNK

Binder	binding signal (SIP2 D1)	binding signal (AP2-I D3)	binding signal (HDP1 homeodomain-like)
B1	11.4 ln median PBM intensity, better of two orientations	12.2 ln median PBM intensity, better of two orientations	
B2	11.6 ln median PBM intensity, better of two orientations	12 ln median PBM intensity, better of two orientations	
B3	6.88 ln median PBM intensity, better of two orientations	6.98 ln median PBM intensity, better of two orientations	
B4	6.91 ln median PBM intensity, better of two orientations	6.92 ln median PBM intensity, better of two orientations	
B5	11.6 ln median PBM intensity, better of two orientations	11.1 ln median PBM intensity, better of two orientations	
B6	11.7 ln median PBM intensity, better of two orientations	12.2 ln median PBM intensity, better of two orientations	
B7	10.6 ln median PBM intensity, better of two orientations	9.77 ln median PBM intensity, better of two orientations	
B8			11.9 ln median PBM intensity, better of two orientations
B9	6.83 ln median PBM intensity, better of two orientations	7.06 ln median PBM intensity, better of two orientations	
B10	6.82 ln median PBM intensity, better of two orientations	7.02 ln median PBM intensity, better of two orientations	
B11	11.4 ln median PBM intensity, better of two orientations	10.9 ln median PBM intensity, better of two orientations	
B12	11.7 ln median PBM intensity, better of two orientations	10.9 ln median PBM intensity, better of two orientations	
B13	11.1 ln median PBM intensity, better of two orientations	11.7 ln median PBM intensity, better of two orientations	
B14			11.4 ln median PBM intensity, better of two orientations
B15	6.81 ln median PBM intensity, better of two orientations	7.28 ln median PBM intensity, better of two orientations	
B16	6.86 ln median PBM intensity, better of two orientations	7.11 ln median PBM intensity, better of two orientations	
B17	6.87 ln median PBM intensity, better of two orientations	7.08 ln median PBM intensity, better of two orientations	
B18			11.7 ln median PBM intensity, better of two orientations
B19	6.9 ln median PBM intensity, better of two orientations	7.19 ln median PBM intensity, better of two orientations	

Binder	binding signal (SIP2 D1)	binding signal (AP2-I D3)	binding signal (HDP1 homeodomain-like)
B20	6.91 ln median PBM intensity, better of two orientations	7.24 ln median PBM intensity, better of two orientations	
B21	6.86 ln median PBM intensity, better of two orientations	7.19 ln median PBM intensity, better of two orientations	
B22	11.8 ln median PBM intensity, better of two orientations	10.3 ln median PBM intensity, better of two orientations	
B23	6.83 ln median PBM intensity, better of two orientations	7.28 ln median PBM intensity, better of two orientations	
B24			11.5 ln median PBM intensity, better of two orientations
B25	10.6 ln median PBM intensity, better of two orientations	12.3 ln median PBM intensity, better of two orientations	
B26	11.4 ln median PBM intensity, better of two orientations	12.2 ln median PBM intensity, better of two orientations	
B27			11.4 ln median PBM intensity, better of two orientations
B28			11.6 ln median PBM intensity, better of two orientations
B29			11.4 ln median PBM intensity, better of two orientations
B30			11.4 ln median PBM intensity, better of two orientations
B31			11.4 ln median PBM intensity, better of two orientations
B32	6.9 ln median PBM intensity, better of two orientations	7.05 ln median PBM intensity, better of two orientations	
B33	11.8 ln median PBM intensity, better of two orientations	12.2 ln median PBM intensity, better of two orientations	
B34			11.5 ln median PBM intensity, better of two orientations
B35	6.92 ln median PBM intensity, better of two orientations	7.09 ln median PBM intensity, better of two orientations	
B36	11.5 ln median PBM intensity, better of two orientations	12.2 ln median PBM intensity, better of two orientations	
B37			11.4 ln median PBM intensity, better of two orientations
B38	6.81 ln median PBM intensity, better of two orientations	7.12 ln median PBM intensity, better of two orientations	
